What was measured:
human DEC205 = molecular target: T1, human DEC205 (human, UniProt O60449 28-1722); test: flow cytometry on CHO/hDEC205 cells, hCG a/s and anti-rabbit IgG-FITC
T1 construct: also called hDEC205; CHO/hDEC205
Method: The ability of ScFv to load antigen onto the human DEC205 was checked by flow cytometry.
The complex was incubated with CHO/hDEC205 cells for one hour at 4□ followed by incubation with hCG a/s and subsequently with anti-Rabbit IgG FITC and binding was analyzed by flow cytometry.

MAb B52/28 = molecular target: T2, MAb B52/28; test: RIA: unlabelled hormone displaces 125I-hCG from MAb 52/28 [left panel (A]
T2 construct: hCG heterodimer specific monoclonal antibody used in the RIA
Method: The antigen-antibody complexes formed were precipitated by adding an appropriate dilution of the normal mouse/rabbit serum, and goat anti-mouse/rabbit IgG followed by addition of 2.5% PEG. The tubes were centrifuged at 4,000 g for 20 minutes at 4 □, the supernatant was discarded and the radioactivity in the pellet was counted in Perkin Elmer γ-counter. The non-specific binding was determined by carrying out binding experiments in the absence of the primary antibodies.
The biotin tagged hormonal antigens were analyzed by RIA using hormone specific antibodies (52/28 for hCG and FSH a/s for hFSH) for their ability to retain their immunodominant epitopes. […] The NIH iodination grade hCG and hFSH were used as the standard reference preparations in the RIA and were used for comparing the bioactivity of these hormonal antigens.

T1 sequence (O60449 28-1722 K1321N/Y1391H limits assumed): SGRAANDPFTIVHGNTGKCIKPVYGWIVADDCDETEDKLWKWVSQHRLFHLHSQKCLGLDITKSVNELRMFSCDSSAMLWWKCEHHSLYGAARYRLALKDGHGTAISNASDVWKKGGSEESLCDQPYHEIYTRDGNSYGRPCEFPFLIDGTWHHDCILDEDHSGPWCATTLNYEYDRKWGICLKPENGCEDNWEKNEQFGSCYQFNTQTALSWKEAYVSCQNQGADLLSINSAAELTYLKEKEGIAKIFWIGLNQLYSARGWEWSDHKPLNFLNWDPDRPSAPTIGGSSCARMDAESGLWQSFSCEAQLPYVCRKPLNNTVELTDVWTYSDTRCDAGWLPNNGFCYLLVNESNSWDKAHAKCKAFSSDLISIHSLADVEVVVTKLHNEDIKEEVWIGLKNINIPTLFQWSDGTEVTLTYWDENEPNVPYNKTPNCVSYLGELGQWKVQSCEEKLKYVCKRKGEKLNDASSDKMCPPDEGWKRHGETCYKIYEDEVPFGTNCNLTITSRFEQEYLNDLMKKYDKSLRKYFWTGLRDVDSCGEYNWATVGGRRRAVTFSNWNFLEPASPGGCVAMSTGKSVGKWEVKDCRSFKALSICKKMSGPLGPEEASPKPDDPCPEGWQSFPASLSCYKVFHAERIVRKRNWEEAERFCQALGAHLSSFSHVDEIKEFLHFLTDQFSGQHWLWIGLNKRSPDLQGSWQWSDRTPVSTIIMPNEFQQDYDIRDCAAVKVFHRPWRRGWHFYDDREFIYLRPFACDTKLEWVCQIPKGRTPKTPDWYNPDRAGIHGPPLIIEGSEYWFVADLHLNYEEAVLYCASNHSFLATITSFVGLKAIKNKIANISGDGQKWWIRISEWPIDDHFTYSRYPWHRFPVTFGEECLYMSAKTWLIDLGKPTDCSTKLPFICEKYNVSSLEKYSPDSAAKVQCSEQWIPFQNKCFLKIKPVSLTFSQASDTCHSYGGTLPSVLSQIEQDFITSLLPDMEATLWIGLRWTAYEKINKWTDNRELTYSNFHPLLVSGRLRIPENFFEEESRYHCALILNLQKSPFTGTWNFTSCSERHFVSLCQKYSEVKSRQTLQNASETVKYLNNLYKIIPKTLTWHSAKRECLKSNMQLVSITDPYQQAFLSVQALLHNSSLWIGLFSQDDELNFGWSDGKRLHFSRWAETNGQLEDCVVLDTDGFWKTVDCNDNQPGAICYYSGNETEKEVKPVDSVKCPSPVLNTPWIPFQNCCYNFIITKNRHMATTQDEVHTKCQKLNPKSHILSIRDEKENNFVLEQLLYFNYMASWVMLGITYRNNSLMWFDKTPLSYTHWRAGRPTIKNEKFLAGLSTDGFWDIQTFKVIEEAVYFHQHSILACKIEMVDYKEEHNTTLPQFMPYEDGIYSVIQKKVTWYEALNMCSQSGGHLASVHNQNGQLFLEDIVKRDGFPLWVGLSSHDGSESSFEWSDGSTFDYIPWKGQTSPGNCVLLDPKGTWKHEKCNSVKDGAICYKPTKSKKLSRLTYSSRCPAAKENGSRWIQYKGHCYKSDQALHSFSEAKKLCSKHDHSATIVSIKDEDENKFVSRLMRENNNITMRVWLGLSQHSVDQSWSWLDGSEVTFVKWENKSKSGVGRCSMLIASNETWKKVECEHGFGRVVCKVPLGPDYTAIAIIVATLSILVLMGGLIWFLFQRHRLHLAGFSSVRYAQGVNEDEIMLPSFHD

B1: biotin tagged recombinant human chorionic gonadotropin (ligand)
chain 1: not shown
chain 2: SKEPLRPRCRPINATLAVEKEGCPVCITVNTTICAGYCPTMTRVLQGVLPALPQVVCNYRDVRFESIRLPGCPRGVNPVVSYAVALSCQCALCRRSTTDCGGPKDHPLTCDDPRFQDSSSSKAPPPSLPSPSRLPGPSDTPILPQ
modifications: biotin by Sulfo-NHS-LC Biotin on the hormone, sites not stated
notes: also called biotin-hCG
B1 was tested, and the binding result (human DEC205) was “no binding” and the “IC50 (read off the curve)” value (MAb B52/28) was roughly 6 ng/tube.
